According to PMC4007472, “Evidence for Steric Regulation of Fibrinogen Binding to Staphylococcus aureus Fibronectin-binding Protein A (FnBPA)*” (The Journal of Biological Chemistry, 2014):

B1: AF1 (rFnBPA(189–550)) (domain or fragment)
chain: AKVETGTDVTSKVTVEIGSIEGHNNTNKVEPHAGQRAVLKYKLKFENGLHQGDYFDFTLSNNVNTHGVSTARKVPEIKNGSVVMATGEVLEGGKIRYTFTNDIEDKVDVTAELEINLFIDPKTVQTNGNQTITSTLNEEQTSKELDVKYKDGIGNYYANLNGSIETFNKANNRFSHVAFIKPNNGKTTSVTVTGTLMKGSNQNGNQPKVRIFEYLGNNEDIAKSVYANTTDTSKFKEVTSNMSGNLNLQNNGSYSLNIENLDKTYVVHYDGEYLNGTDEVDFRTQMVGHPEQLYKYYYDRGYTLTWDNGLVLYSNKANGNEKNGPIIQNNKFEYKEDTIKETLTGQYDKNLVTTVEEEYDSS
notes: Cloned in pET-YSBLIC-3C; not shown: His6, N-terminal, cleaved
B3: NTD (30-kDa N-terminal proteolytic fragment of fibronectin) (domain or fragment)
chain: not shown
modifications: Limits not printed: conventional N-terminal 29-30 kDa fragment, mature residues 1-259 (1-5F1). N-terminal pyroglutamate, intradomain disulfides

Tests used:
Settings in all cases: both partners purified
[1] = molecular target: B3; experiment: ITC; MicroCal VP-ITC, PBS pH 7.4, 25 °C, single-site binding model; AF1 injected into NTD; AF1 with Fg
[2] = molecular target: T1, Intact human plasma fibrinogen (Fg) (human, UniProt P02671-2 20-644; P02675 31-491; P02679-2 27-437); experiment: as above
T1 construct: Fibrinogen Aα chain, human, from plasma; Fibrinogen Bβ chain, human, from plasma; Fibrinogen γ chain, human, from plasma; 341 kDa dimer of heterotrimers Aα, Bβ, γ; source: bought: Calbiochem-Merck-Millipore (human plasma, product no. 341576); in human plasma for the pulldown; copies: 2 + 2 + 2
T1 sequence (looked up) 1: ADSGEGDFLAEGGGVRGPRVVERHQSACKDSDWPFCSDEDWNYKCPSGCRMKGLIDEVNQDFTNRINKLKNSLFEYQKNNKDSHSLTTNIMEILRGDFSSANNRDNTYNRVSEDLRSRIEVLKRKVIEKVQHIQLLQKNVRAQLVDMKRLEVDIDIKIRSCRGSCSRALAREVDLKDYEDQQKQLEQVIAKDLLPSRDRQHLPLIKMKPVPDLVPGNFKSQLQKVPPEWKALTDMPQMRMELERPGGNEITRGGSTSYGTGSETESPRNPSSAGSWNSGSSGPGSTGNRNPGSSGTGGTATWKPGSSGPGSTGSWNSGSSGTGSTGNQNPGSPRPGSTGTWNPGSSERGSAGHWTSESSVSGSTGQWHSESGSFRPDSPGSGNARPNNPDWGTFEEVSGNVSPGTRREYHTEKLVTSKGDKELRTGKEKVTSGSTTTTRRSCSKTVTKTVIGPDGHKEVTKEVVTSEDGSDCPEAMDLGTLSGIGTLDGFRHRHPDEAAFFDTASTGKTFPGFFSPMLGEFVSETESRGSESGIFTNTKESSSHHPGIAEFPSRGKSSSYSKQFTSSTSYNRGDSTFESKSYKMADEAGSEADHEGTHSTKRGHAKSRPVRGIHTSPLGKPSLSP
T1 sequence (looked up) 2: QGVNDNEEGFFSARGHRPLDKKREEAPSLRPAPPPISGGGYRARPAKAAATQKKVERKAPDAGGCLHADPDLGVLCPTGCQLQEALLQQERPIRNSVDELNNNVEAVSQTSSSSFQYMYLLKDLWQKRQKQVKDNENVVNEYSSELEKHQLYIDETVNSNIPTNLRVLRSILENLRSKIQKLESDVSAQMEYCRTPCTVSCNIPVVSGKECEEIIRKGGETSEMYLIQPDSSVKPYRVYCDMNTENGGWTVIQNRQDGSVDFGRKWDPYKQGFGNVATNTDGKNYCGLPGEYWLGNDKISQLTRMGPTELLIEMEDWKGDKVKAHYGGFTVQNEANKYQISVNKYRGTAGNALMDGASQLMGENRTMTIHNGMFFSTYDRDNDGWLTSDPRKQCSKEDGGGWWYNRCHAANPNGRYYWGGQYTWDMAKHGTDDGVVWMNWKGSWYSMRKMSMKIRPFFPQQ
T1 sequence (looked up) 3: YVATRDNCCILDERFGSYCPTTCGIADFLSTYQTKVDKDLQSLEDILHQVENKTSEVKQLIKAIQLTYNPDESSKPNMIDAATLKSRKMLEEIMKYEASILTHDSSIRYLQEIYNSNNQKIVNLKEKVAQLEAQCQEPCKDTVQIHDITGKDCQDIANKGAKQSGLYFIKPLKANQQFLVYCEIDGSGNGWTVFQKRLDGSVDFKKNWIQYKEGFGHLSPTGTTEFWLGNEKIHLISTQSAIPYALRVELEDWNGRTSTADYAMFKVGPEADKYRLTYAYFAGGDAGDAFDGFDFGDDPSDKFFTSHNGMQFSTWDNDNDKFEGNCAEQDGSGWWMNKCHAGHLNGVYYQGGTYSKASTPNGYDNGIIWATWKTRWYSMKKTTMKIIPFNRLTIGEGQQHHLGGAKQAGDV

[3] = molecular target: Human plasma fibronectin (Fn) (human, Plasma form by convention: no EDB or EDA, disulfide-linked heterodimer of a V+ chain (V89 chosen) and a V0 chain; the real material is a splice mixture. N-terminal pyroglutamate, glycosylated); experiment: SPR; AF1 immobilised by amine coupling, Fn (5.2–0.01 nM) or NTD as analyte; kinetic analysis, Langmuir 1:1 fit; 25 °C, HBS-P+
[4] = molecular target: B1; experiment: SPR; NTD immobilised on a C1 chip; 0.5 μM AF1 + 0.5 μM Fg injected together, without or with 50 μM FgγC; 25 °C, HBS-P+
[5] = molecular target: T2, rFnBPA(189–505) (S. aureus 8325-4, UniProt P14738 189-505); experiment: crystal structure; rFnBPA(189–505) 25 mg/ml with a 20-fold molar excess of FgγC; 1.83 Å
T2 construct: Cloned in pET-YSBLIC-3C; also called N2N3 (without latch); not shown: His6, N-terminal, cleaved
T2 sequence: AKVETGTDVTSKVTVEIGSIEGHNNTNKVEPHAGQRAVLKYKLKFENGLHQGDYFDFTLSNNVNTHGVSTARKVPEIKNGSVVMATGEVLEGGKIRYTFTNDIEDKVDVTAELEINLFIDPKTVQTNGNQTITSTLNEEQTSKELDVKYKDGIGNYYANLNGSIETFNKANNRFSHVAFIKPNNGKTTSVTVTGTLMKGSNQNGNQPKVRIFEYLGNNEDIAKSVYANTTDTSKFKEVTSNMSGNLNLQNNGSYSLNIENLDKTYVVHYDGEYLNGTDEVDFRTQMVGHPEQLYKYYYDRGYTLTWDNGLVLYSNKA

[6] = molecular target: B1; experiment: ITC; MicroCal VP-ITC, PBS pH 7.4, 25 °C, single-site binding model; AF1 injected into NTD; AF1 with Fg
[7] = molecular target: B1; experiment: SPR; AF1 immobilised by amine coupling, Fn (5.2–0.01 nM) or NTD as analyte; kinetic analysis, Langmuir 1:1 fit; 25 °C, HBS-P+
[8] = molecular target: T2, rFnBPA(189–505); experiment: SPR; FgD immobilised by amine coupling, rFnBPA constructs as analytes in 2-fold dilutions; equilibrium (steady-state) analysis; 25 °C, HBS-P+ (10 mM HEPES pH 7.4, 150 mM NaCl, 0.05% polysorbate 20)
[9] = molecular target: B1; experiment: as above
[10] = molecular target: T3, rFnBPA(189–511) (S. aureus 8325-4, UniProt P14738 189-511); experiment: as above
T3 construct: Cloned in pET-YSBLIC-3C; also called N2N3 domains including the latch strand; not shown: His6, N-terminal, cleaved
T3 sequence: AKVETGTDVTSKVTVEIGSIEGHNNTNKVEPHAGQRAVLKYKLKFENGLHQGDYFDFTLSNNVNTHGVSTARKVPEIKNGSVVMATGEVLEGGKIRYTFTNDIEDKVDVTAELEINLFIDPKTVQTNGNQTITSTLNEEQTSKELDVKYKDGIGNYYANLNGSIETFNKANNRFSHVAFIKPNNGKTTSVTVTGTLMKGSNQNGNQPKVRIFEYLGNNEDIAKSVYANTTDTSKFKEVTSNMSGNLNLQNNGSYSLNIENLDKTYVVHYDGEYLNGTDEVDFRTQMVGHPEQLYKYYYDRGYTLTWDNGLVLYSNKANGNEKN

## B1
[1]
  dH: -35.8 kcal/mol
  stoichiometry N: 0.89
[2]
  Kd: 1100 nM
  dH: -6.1 kcal/mol
  stoichiometry N: 2.11
[3]
  Kd: 0.359 nM

B2: FgγC (synthetic peptide, 17 C-terminal residues of the Fg γA chain) (peptide)
peptide: Ac-GEGQQHHLGGAKQAGDV-NH2
notes: Fibrinogen γA chain, human, the 17 C-terminal residues; also called Fg peptide; source: synthetic peptide (Severn Biotech Ltd.)
[4]
  binding result: binds
[5]
  binding result: binds

## B3
[6]
  Kd: 0.7 nM
[7]
  Kd: 0.393 nM

B4: FgD (monomeric ~85-kDa proteolytic fragment of Fg) (domain or fragment)
chain 1: DNTYNRVSEDLRSRIEVLKRKVIEKVQHIQLLQKNVRAQLVDMKRLEVDIDIKIRSCRGSCSRALAREVDLKDYEDQQKQLEQVIAKDLLPSR
chain 2: DNENVVNEYSSELEKHQLYIDETVNSNIPTNLRVLRSILENLRSKIQKLESDVSAQMEYCRTPCTVSCNIPVVSGKECEEIIRKGGETSEMYLIQPDSSVKPYRVYCDMNTENGGWTVIQNRQDGSVDFGRKWDPYKQGFGNVATNTDGKNYCGLPGEYWLGNDKISQLTRMGPTELLIEMEDWKGDKVKAHYGGFTVQNEANKYQISVNKYRGTAGNALMDGASQLMGENRTMTIHNGMFFSTYDRDNDGWLTSDPRKQCSKEDGGGWWYNRCHAANPNGRYYWGGQYTWDMAKHGTDDGVVWMNWKGSWYSMRKMSMKIRPFFPQQ
chain 3: AIQLTYNPDESSKPNMIDAATLKSRKMLEEIMKYEASILTHDSSIRYLQEIYNSNNQKIVNLKEKVAQLEAQCQEPCKDTVQIHDITGKDCQDIANKGAKQSGLYFIKPLKANQQFLVYCEIDGSGNGWTVFQKRLDGSVDFKKNWIQYKEGFGHLSPTGTTEFWLGNEKIHLISTQSAIPYALRVELEDWNGRTSTADYAMFKVGPEADKYRLTYAYFAGGDAGDAFDGFDFGDDPSDKFFTSHNGMQFSTWDNDNDKFEGNCAEQDGSGWWMNKCHAGHLNGVYYQGGTYSKASTPNGYDNGIIWATWKTRWYSMKKTTMKIIPFNRLTIGEGQQHHLGGAKQAGDV
modifications: Limits not printed: conventional plasmin fragment D1 (mature Aalpha 105-197, Bbeta 134-461, gamma 63-411), ends may be ragged; gammaA C-terminus (AGDV) used because the UniProt canonical entry is …
[8]
  Kd: 3700 nM
[9]
  Kd: 1500 nM
[10]
  Kd: 1500 nM
